Measurements: US20250116673A1 (published 2025)

T1: SARS-CoV-2 Spike protein peptide on HLA-DPA1*01:03 / HLA-DPB1*04:01 (human)
T1 peptide: TFEYVSQPFLMDLE

B1: TCR6.3 (TCR)
alpha TRAV35 TRAJ42 CDR3: CAGMNYGGSQGNLIF
beta TRBV6-3 TRBJ1-2 CDR3: CASSYRGAYGYTF
B2: TCR4.1 (TCR)
alpha TRAV35 TRAJ42 CDR3: CAGMNYGGSQGNLIF
beta TRBV4-1 TRBJ1-2 CDR3: CASSQGVGYTF

Molecular target: T1, SARS-CoV-2 Spike protein peptide on …
Assay: multimer staining

| Binder | binding result |
| --- | --- |
| B1 | recognises |
| B2 | recognises |
